Reference: the nanobody polyreactivity screen of Harvey et al. (2022)

Assay: yeast display, Sf9 membrane polyspecificity reagent, FACS + sequencing; frameworks hold sequencing errors
Procedure, shortened: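 Galactose induction of a Saccharomyces cerevisiae BJ5465 synthetic nanobody display library ran 36–48 hours. The cells were then stained for 1 hour at 4 °C with 10% biotinylated, detergent-solubilized Sf9 membrane reagent, pulled down on streptavidin microbeads and FACS-sorted into low and high (top ~1%) gates on expression and reagent-binding fluorescence. Labels for polyreactivity follow the gate of origin.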

Sequence | polyreactivity (PSR sort gate)
QVQHVESGGGLVQAGGSLRLSCAASGLTFAGYTMGWYRQAPGKERELVAAITRGGGRTYYADSVKGRFTISRDNAKNTVYLQMNSLKPEDTAVYYCATVSQYRGYYWGQGTQVTVSS | high polyreactivity
QVQHVESGGGLVQAGGSLRLSCAASGRIFDLNAMGWYRQATGKERELVAAISYSGGRTFSADSVKRRFTISRDNAKNTVYLQMNSLKPEDTAVYYCAAVAYLNWTPHYYWGQGTQVTVSS | low polyreactivity
QVQHVESGGGLVQAGGSLRLSCAASGRIFDLYAMGWYRQAPGKERELVAAITSGSTYYADSVKGRFTISRDNAKNTVYLQMNSLKPEDTAVYYCAADLSYWRGGHSRNYWGQGTQVTVSS | low polyreactivity
QVQHVESGGGLVQAGGSLRLSCAASGRIFDSYAMGWYRQAPGKERELVATISWDSASTYYADTVKGRFTISRDNAKNTVYLQMNCLNPEDTAVYYCAAGGSSSWAFNYWGQGTQVTVSS | low polyreactivity
QVQHVESGGGLVQAGGSLRLSCAASGRIFGRNNMGWYRQAPGKERELVAAISSSGGSTRYADSVKGRFTISRDNAKNTVYLQMNSLKPEDTGVYYCAARRAYYYEGGYDYWGQGTQVTVSS | high polyreactivity
QVQHVESGGGLVQAGGSLRLSCAASGRIFGSNAMGWYRQPPGKDRELVAAITWSGGSTYYADSVKGRFTISRDNAKNTVYLQMNSLKPEDTAVYDCAAPASRTKGPFPGYDYWGQGTQVTVSS | high polyreactivity
QVQHVESGGGLVQAGGSLRLSCAASGRIFGSYAMVGYIQAPGKETELDAAIRWSGGNTYYADSVKGRFTITRDNAKNTVYFQMNSLKPEDTAVYYCNARTARSYSKTSYRFSSYNYWGQGTQVTVSS | high polyreactivity
QVQHVESGGGLVQAGGSLRLSCAASGRIFRFNAMGWYRKAPGKERELVAAISWRSSNTYYADSVKGRFTISRDNAKNSVYLQMNSLKPEDTAVYYCAASTASSKYRYEYWGQGTQVTVSS | high polyreactivity
QVQHVESGGGLVQAGGSLRLSCAASGRIFSANAMGWYRQAPGKERELVAAISGSGGSTFYADSVKGRFTISRDNAKNTVYLQMNSLKPEDTAVYYCAARRYRSGYYSFYYWGQGTQVTVSS | high polyreactivity
QVQHVESGGGLVQAGGSLRLSCAASGRIFSYYAMGWYRQAPGKERELVAVISRRGDNTYYADSVKGRFTISRDNAKKTVYLQMNSLKPEDTAVYYCAARFGYLTFYSSGYYWGQGTQVTVSS | high polyreactivity
QVQHVESGGGLVQAGGSLRLSCAASGRIFYGNAMGWYRQAPGKERELVAGITRSSGTSTDYADSVKGRFTISRDNAKNSVYLQMNSMKPEDCAVYYCAAPPDSYYFYKVPVVPYDYWGQGTQVTVSS | low polyreactivity
QVQHVESGGGLVQAGGSLRLSCAASGRTFAHYAMGWYRQAPGKERELVAAISWGGTRTYYADSVKGRFTISRDNAKNTVYLQMNSLKPEDTAVYYCAADYGYQDDYWGQGTQVTVSS | low polyreactivity
QVQHVESGGGLVQAGGSLRLSCAASGRTFGLNAMGWYRQAPGKERELVAAISGSGGRTYYADSVKGRFTISRDNAKNTVYLQMNSLKPEDTAVYYCARVPSGQLEYDYWGQGTQVTVSS | high polyreactivity
QVQHVESGGGLVQAGGSLRLSCAASGRTFGWYTMGWYRQAPGKEREFVAAISSSDTSTYYADSVKGRFTISRDNAKNTVYLQMNSLKPEDTAVYYCAADPPSWQWFVGYSYDYWGQGTQVTVSS | low polyreactivity
QVQHVESGGGLVQAGGSLRLSCAASGRTFTFNAMGWYRPAPGKERELVARIDWRGITYADSVKGRFTISRDNAKNTVYLQMNSLKPEDTAVYDCAAVWLHISYYGKYDYWGQGTQVTVSS | low polyreactivity
QVQHVESGGGLVQAGGSLRLSCAASGRTFTPNAMGWYRPPPGKVREMVAAIDWRGGRTYYADSVKGRFTISRDNAKNTVYLQKNSLKPEDTAVYYCAARVDGYQYKSAGYSYGVFYWGQGTQVTVSS | low polyreactivity
QVQHVESGGGLVQAGGSLRLSCAASGRTLYNYAMGWYRQAPGKEWELVAAISGSGGSTYYADSVKGRFTISRDNAKNTVYLQMNSLKPEDTEVYFCAKYRGIYPDVRGTYYWGQGTQVTVSS | high polyreactivity
QVQHVESGGGLVQAGGSLRLSCAASGRTYVNYVMGWYRQAPGKEREFVAAISRNGGSTYYADSVKGRFSISRDNAKYTFYLQMNSLKPEDTAVYYCAARPRRRYYGSDSWGQGTQVTVSS | high polyreactivity
QVQHVESGGGLVQAGGSLRLSCAASGSIFDRNAMGRYRQAPGKERELVAAISGGDSTYYADSVKGRFTISRDNAKNTVYLQMNSLKPEDTAVYYCNVDFKTEYDYWGQGTQVTVSS | low polyreactivity
QVQHVESGGGLVQAGGSLRLSCAASGSIFDVYTMGWYRQAPGKQRELVAAINTGGGSTYYADSVKGRFTISRDNAKNTVYLQMISLKPEDTAVYYCAASVYHYGPLYYWGQGTQVTVSS | low polyreactivity
QVQHVESGGGLVQAGGSLRLSCAASGSIFIPYAMGWSRQPPGKERELVAAISWSGSSTYYADSVKGRFTISRDNAKNTVYLQMISLKPEDTAVYYCAAYNAYRRGYDYWGQGTQVTVSS | high polyreactivity
QVQHVESGGGLVQAGGSLRLSCAASGSIFNTYTMGWYRQAPGKERELVAAISSGGSTYYADSVKGRFSISRDNAKNTVYLHMNSLKPEDTAVYYCAAYGHSFQIYDYWGQGTQVTVSS | low polyreactivity

Sequence | polyreactivity (PSR sort gate)
QVQHVESGGGLVQAGGSLRLSCAASGSIFPHYAMGWYRQAPGKERELVAAISYSGGRTYYADSVKGRFTISRDNAKNTVYLQMNSLKPEDTAVYYCAKPERVLYHGDYWGQGTQVTVSS | low polyreactivity
QVQHVESGGGLVQAGGSLRLSCAASGSIFRFYAMGWYRQAPGKERELVAAISWSGGSTYYADSVKGRFTISRDNAKNTVYLQMNSLKPEDTAVYYCNTRYYGGFDSWGQGTQVTVSS | high polyreactivity
QVQHVESGGGLVQAGGSLRLSCAASGSIFRRNAMGRYRQAPGKVRELVAGISGGGSTYYADSVKGRFTISRDNAKNTVYLQMNSMKPEDTAVYYCATDKHYRSAGFDYWGQGTQVTVSS | low polyreactivity
QVQHVESGGGLVQAGGSLRLSCAASGSIFRYYAMGWYRQAPGKERELVAASTSGGSTSYADSVKGRFTISRDNAKNTVYLQMNSLKPEDTAVYYCAKRSRHNKYYYWGQGTQVTVSS | high polyreactivity
QVQHVESGGGLVQAGGSLRLSCAASGSIFYTYPMGWNRQAPGKERELVAAISFSDGDTYYADSVKGRFTISRDNAKNTVYLQMIRLKPVDTAVYYCNDYVYLPNYPYDYWGQGTHVTVSS | low polyreactivity
QVQHVESGGGLVQAGGSLRLSCAASGSIIYRNAMGWSRQPPGKERELVAAISWSAARTYYADSVKGRFTISRDNAKNTVYLQMNSQKPEDTAVYYCNKAARFTSHQGYDSWGQGTQVTVSS | high polyreactivity
QVQHVESGGGLVQAGGSLRLSCAASGSILFKYAMGWSRQAPGQESELVATITSGGSTYYADSVKGRVTISRDNAKNTVYLQMNSLKPEDTAVYYCATGQYYYDGIVAFFELDYWGQGTQVTVSS | low polyreactivity
QVQHVESGGGLVQAGGSLRLSCAASGSLFYGNTMGWARQAPGKERELVAAISNDDSRTYYADSVKGRFTISRDNAKNTVYLQMNSLKPEDTAVYYSATRGYPYRYRQTLNYWGQGTQVTVSS | high polyreactivity
QVQHVESGGGLVQAGGSLRLSCAASGSTFAINAMGGYRQAPGKERELVAAISSSGSTNYADSVKGRFTISRDNAKNTVYLQMNSLKPEDTAVSYCAADRVWGTPQAYVPSQFDYWGQGTQVTVSS | low polyreactivity
QVQHVESGGGLVQAGGSLRLSCAASGSTFDAYAMGWYRQAPGKERELVAAISWSDTTTYYADSVKGRFTISRDTAKNTVYLQMYSLKPEDTAVSYCADEYYFTDGSYTSDYWGPGTQVTVSS | high polyreactivity
QVQHVESGGGLVQAGGSLRLSCAASGSTFFRYAKGWYRQAPGTERELVAAISYSGDSTYYADSVKGRFTISRDNAKNTVYLQMNSLKPEDSAVYYCNAVYFRYRYNYWGQGTQVTVSS | high polyreactivity
QVQHVESGGGLVQAGGSLRLSCAASGSTFGRYGMGWYRQAPGTERELVAAISRGGGTNYADSVKGRFTISRDNAKKTVYLQMNSLKPEDTAVYYCNARWYYALYDYWGQGTQVTVSS | low polyreactivity
QVQHVESGGGLVQAGGSLRLSCAASGSTFGWYAMGWYRQAPGKVRELVAAITRRGTRTYYADSVKGRFTISRDNAKNTVYLQMNSLKPEDTAVYYCNARGFPGKFGYWGQGTQVTVSS | high polyreactivity
QVQHVESGGGLVQAGGSLRLSCAASGSTFHLYAIGWYRQAPGKEREFVAAIRGRGGNTYADSVKGRFTISRDNAKNTVYLQMNSVKPEDTAVYSCAAPLLRDLRSPYSYNYWGQGTQVTVSS | low polyreactivity
QVQHVESGGGLVQAGGSLRLSCAASGSTFKHNAMGWSRQAPGKERELVAGISWGGSSTYYADSVKGRFTISRDKAKNTVYLQMNSLKPEDTAVYYCAKGGYRRYGYDYWGQGTQVTVSS | low polyreactivity
QVQHVESGGGLVQAGGSLRLSCAASGSTFQMYAMGWYRQAPGKEMELVASISWSGGSTYYAVSVMGRFTISRDNAKNTFYLQMNSLKPEDTAVYYCKADFWWRYRPGAVFRSYGYWGQGTQVTVSS | low polyreactivity
QVQHVESGGGLVQAGGSLRLSCAASGSTFSHYAMGWYRQAPGKERELVASINSAGSTNYADSVKGRFTISRDNAKNTVYLQMNSLKPEDTAVYYCNTEVQVYSYNYWGQGTQVTVSS | low polyreactivity
QVQHVESGGGLVQAGGSLRLSCAASGSTFYENAMGWYRQAPGKERELGAGIRSTGRTYYADSVKGRFTISRDNAKNTVYIQMNSLKPEDTAVYYCAAYVGTYGEYDYWGQGTQVTVSS | low polyreactivity
QVQHVESGGGLVQAGGSLRLSCAASGSTIQNNAMGWYRQPPGKERELVAAMNNGGSTNYADSVKGRFTISRDNAKNTVYLQMNSLIPEDSAGYYCNTDRHHADYQWGWPSAFEEFGYWGLGTQVTVSS | low polyreactivity
QVQHVESGGGLVQAGGSLRLSCAASGSTLSSYAMGWSRQAPGKERELVAAINSSGGRTYYADSVKGRFTISRDNAKNTVYLKMNSVKPEDTEVYYCAATRGRYREDEDYWGQGTQVTVSS | high polyreactivity
QVQHVESGGGLVQAGGSLRLSCAASGSTSYPYAMGWYRQAPGKERELVATITSGGRTNYADSVKGRFTISRDNAKNTVYLQMNSLKPEDTAVYYCNARFYRWRSYGYDYWGQGTQVTVSS | high polyreactivity
